± gives the standard error. Variants at the floor of the assay were thinned out.
B1: glmS ribozyme (parent)
chain: AUAAAAGCGCCAGAACUACAGAAAUGUAGUUGACGAGGAGGAGGUUUAUCGAAUUUUCGGCGGAUGCCUCCAAA

Variants of: B1
Assay: self-cleavage kobs at 2500 uM GlcN6P; higher = faster cleavage; RNA array
Conditions: with glucosamine-6-phosphate
Outline: (§1)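 Weighted Michaelis–Menten fits across concentrations supplied kcat and KM, based on kobs from one- or two-exponential decay fits to normalised per-tile medians. The data came from barcoded ribozyme variants transcribed in situ by E. coli RNA polymerase on sequenced MiSeq chips and tracked at 37 °C by a hybridised Cy3 probe. Glucosamine-6-phosphate (40 μM to 10 mM) in HEPES/KCl/Mg(OAc)2 buffer was flowed in.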

Variant	self-cleavage kobs at 2500 uM GlcN6P
A6G C61A C71U	< 1e-05 s⁻¹
A12G G37U A53C G62A A64U C68G	< 1e-05 s⁻¹
U31A G38U G51A	< 1e-05 s⁻¹
C10A C11G G40U C50G A52U	< 1e-05 s⁻¹
G38A G44C	< 1e-05 s⁻¹
G43C U47A G62U C71U	< 1e-05 s⁻¹
A14U U30C G62C U69G	< 1e-05 s⁻¹
G9C A15G U45G	< 1e-05 s⁻¹
A14C C34G G62U	< 1e-05 s⁻¹
G44U U56C U57A	< 1e-05 s⁻¹
C8A C58A A64C	< 1e-05 s⁻¹
U30A G32C A39G	9.38e-05 ± 3.4e-05 s⁻¹
A14C A33G C34G G37C G60C	< 1e-05 s⁻¹
U54G C58G A64G C71U	5.26e-05 ± 2.3e-05 s⁻¹
A52U U57A C67U	0.000441 ± 9.6e-05 s⁻¹
G40C G66C	0.000833 ± 0.00021 s⁻¹
A14C U30C G32A C58G	7.82e-05 ± 3.2e-05 s⁻¹
A15C A33C C61U G66A	< 1e-05 s⁻¹
G32U G41A C58U	9.05e-05 ± 2.6e-05 s⁻¹
G35A C50A U55C G62A A64U	< 1e-05 s⁻¹
A12C U31C U56C	0.000204 ± 6.7e-05 s⁻¹
A12G G38U C67G C68A	9.28e-05 ± 2.6e-05 s⁻¹
G40C G41U C71A	4.86e-05 ± 1.8e-05 s⁻¹
G41U C58A A64G U69A	< 1e-05 s⁻¹
A15C A36C G59A U65A	< 1e-05 s⁻¹
C11A G21U	9.85e-05 ± 2.9e-05 s⁻¹

Variant	self-cleavage kobs at 2500 uM GlcN6P
G13A U54G C68A	7.33e-05 ± 2.7e-05 s⁻¹
A39U G66A C70G	0.000771 ± 0.00023 s⁻¹
A42G C50G G63U	< 1e-05 s⁻¹
C11U C34G U54C	< 1e-05 s⁻¹
C50G C58A G66A	0.000121 ± 4.3e-05 s⁻¹
G37A A64C C67G	< 1e-05 s⁻¹
G9C U49A G51A C70U C71A	< 1e-05 s⁻¹
A15G G38A A48U	< 1e-05 s⁻¹
U30C G41U A42C	< 1e-05 s⁻¹
G13A C50A U69A	3.87e-05 ± 1.8e-05 s⁻¹
A36C G59U G60U C70G	< 1e-05 s⁻¹
A12C C16U G40A	0.00176 ± 0.00038 s⁻¹
U46G U55C G66A	0.00233 ± 0.00084 s⁻¹
A15C A39U C50G A53G	< 1e-05 s⁻¹
G41U G51U G62C	< 1e-05 s⁻¹
A33C C50U U56C	< 1e-05 s⁻¹
C11U A14G A33G C68A C71A	0.000684 ± 0.00034 s⁻¹
G37A G44C	4.54e-05 ± 1.3e-05 s⁻¹
A6G G35U G51U C58U	< 1e-05 s⁻¹
A12G A14C A15C	6.38e-05 ± 2.6e-05 s⁻¹
A14U C34A A48G C68G C71A	< 1e-05 s⁻¹
C16A G37U G41A	< 1e-05 s⁻¹
G37A C50G U54C	0.000123 ± 4.8e-05 s⁻¹
A14U A15G G32U U57G U69A	0.000285 ± 0.00012 s⁻¹
G7A A15G G29A A36G A52G	< 1e-05 s⁻¹
G7U U31C G43A	< 1e-05 s⁻¹

Variant	self-cleavage kobs at 2500 uM GlcN6P
A39G G40U U54A	0.000126 ± 6.2e-05 s⁻¹
C16G A36U G60A	< 1e-05 s⁻¹
G37A U49G A52U G59A	< 1e-05 s⁻¹
C10A G66A C68A	5.96e-05 ± 2.6e-05 s⁻¹
A6C A39C G60U	< 1e-05 s⁻¹
G7U C16U A33U	< 1e-05 s⁻¹
C8U C34U G37A U54C	< 1e-05 s⁻¹
A6C G13C G29A U30G G32U A33G C34A C50U	< 1e-05 s⁻¹
G9C A33C A48G U54G	< 1e-05 s⁻¹
A39G G41U U69A	5.05e-05 ± 2.2e-05 s⁻¹
C16G C50U A53C C68G	0.000113 ± 4.6e-05 s⁻¹
G32U G44C U47G	< 1e-05 s⁻¹
G40U G51C C58U G60U G66U	< 1e-05 s⁻¹
G13A U30A C58A	0.000138 ± 3.4e-05 s⁻¹
A6U U56A G63U	< 1e-05 s⁻¹
G9U A15C G32C	< 1e-05 s⁻¹
A6C A14C A15U A42G	< 1e-05 s⁻¹
G32U G37C G43U	< 1e-05 s⁻¹
C10A U47A C70A	0.000334 ± 0.00015 s⁻¹
U31G G44C G59C	< 1e-05 s⁻¹
U2C A53C	0.00726 ± 0.0019 s⁻¹
A36C G37A G38A U56A C68G	6.64e-05 ± 2.3e-05 s⁻¹
G7U G41C C50U	< 1e-05 s⁻¹
G43A U47G C61G	< 1e-05 s⁻¹
G29U G32C A53G C70U	6e-05 ± 1.4e-05 s⁻¹

Variants of: B1
Assay: self-cleavage kobs at 10000 uM GlcN6P; higher = faster cleavage; RNA array
Conditions: with glucosamine-6-phosphate
Outline: as §1

Variant	self-cleavage kobs at 10000 uM GlcN6P
G38A G44C	< 1e-05 s⁻¹
U54G C58G A64G C71U	4.18e-05 ± 1.4e-05 s⁻¹
A52U U57A C67U	0.000894 ± 0.0002 s⁻¹
G40C G66C	0.000531 ± 6.3e-05 s⁻¹
G35A C50A U55C G62A A64U	< 1e-05 s⁻¹
G40C G41U C71A	0.000104 ± 1.6e-05 s⁻¹
A15C A36C G59A U65A	< 1e-05 s⁻¹
C11A G21U	0.000164 ± 3.4e-05 s⁻¹
U46G U55C G66A	0.00269 ± 0.00067 s⁻¹
A14U C34A A48G C68G C71A	0.000226 ± 7.7e-05 s⁻¹

— the supplement of paper PMC7125110
